# Experimental data as given in PMC9321335, “Palmitic Acid-Conjugated Radiopharmaceutical for Integrin αvβ3-Targeted Radionuclide Therapy” (Pharmaceutics, 2022).
# How the values were obtained:
# [1] = physchem; assay type: physicochemical
# Protocol: Briefly, the radiopharmaceuticals were prepared and purified with Sep-Pak-C18 cartridges and then dissolved in a mixed solution of 5 mL n-octanol and 5 mL PBS. After vortexing for 1 h, the mixture was centrifuged at 10,000 rpm for 10 min. Samples (100 μL, n = 4) from the n-octanol and PBS components were collected and counted using a γ-counter. The […] were calculated as the logarithm of the n-octanol/PBS ratio.
# [2] = in vivo; parameters: species or system C57BL/6 mice; conditions: C57BL/6, mouse, 37 MBq, total radioactivity
# Protocol: SPECT/CT imaging was performed using a small animal SPECT/CT imaging system (Mediso Inc., Budapest, Hungary). Each mouse bearing MC38 tumors was injected with a radiotracer at a radioactivity of 37 MBq/1 mCi. The mice were imaged at 1, 4, 12, 24, and 72 h after injection of ^177Lu-Palm-3PRGD2 (37 MBq, 2.7 nmol), and the mice in the blocking study were imaged at 1 h p.i. […] Pinhole SPECT images (peak, 56.1, 112.9, and 208.4 keV; 20% width; frame time, 25 s) were acquired, and CT images were subsequently acquired (50 kV; 0.67 mA; rotation, 210°; exposure time, 300 ms). The raw data were reconstructed in a whole-body region. The SPECT and CT images were then fused using Nucline v 2.01 (Mediso Inc., Budapest, Hungary). The maximum intensity projection (MIP) was determined for whole-body imaging from the posterior view.
# [3] = tested on: MC38 tumor-bearing mice; assay: in vivo; conditions: mouse
# Protocol: Mice bearing MC38 xenografts were randomly divided into 10 groups (n = 4). The mice in five groups were administered 0.74 MBq/20 µCi of ^177Lu-Palm-3PRGD2 and sacrificed at 1, 4, 12, 24, and 72 h p.i. The mice on one group was injected with 0.74 MBq/20 µCi of ^177Lu-Palm-3PRGD2 and 500 μg (242 nmol) 3PRGD2 as a blocking agent and sacrificed at 1 h p.i. […] Tumors and major organs were harvested, weighed and measured for radioactivity using a γ-counter. The organ uptake was calculated as the percentage injected activity per gram (%IA/g). The effective absorbed dose in humans estimated from mouse biodistribution data by using a dedicated software (OLINDA 1.0).
smiles,measurement,setting,value
"CCCCCCCCCCCCCCCC(=O)N[C@@H](CCC(=O)NCCCC[C@H](NC(=O)CN1CCN(CC(=O)O)CCN(CC(=O)O)CCN(CC(=O)O)CC1)C(=O)NCCOCCOCCOCCOCCC(=O)N[C@@H](CCC(=O)NCCOCCOCCOCCOCCC(=O)NCCCC[C@@H]1NC(=O)[C@@H](Cc2ccccc2)NC(=O)[C@H](CC(=O)O)NC(=O)CNC(=O)[C@H](CCCNC(=N)N)NC1=O)C(=O)NCCOCCOCCOCCOCCC(=O)NCCCC[C@@H]1NC(=O)[C@@H](Cc2ccccc2)NC(=O)[C@H](CC(=O)O)NC(=O)CNC(=O)[C@H](CCCNC(=N)N)NC1=O)C(=O)O [^177Lu-Palm-3PRGD2, [^177Lu]Lu-DOTA-Palm-3PRGD2, metal not drawn]",logD,[1],-1.25 ± 0.07
same,tissue uptake per volume at 1 h,[2],15 ± 0.13 %ID/mL
same,AUC0h→72h in MC38 tumor,[3],1031.0 ± 97.25 % IA/g·h
same,AUC0h→72h in blood,[3],104.5 ± 7.98 % IA/g·h
same,AUC0h→72h in kidney,[3],1087.0 ± 62.73 % IA/g·h
same,AUC0h→72h in liver,[3],915.6 ± 74.74 % IA/g·h
